As usually defined, the Kd is a measure of binding affinity in units of concentration.

Series [1] has as its target T1, IMP2 KH34 (UniProt Q9Y6M1 425-581). Briefly: EMSA; EMSA: 100 pM RNA, 10 mM Tris, 100 mM NaCl, 0.1 mM EDTA, 0.01 mg/mL tRNA, 50 ug/mL heparin, 0.01% IGEPAL CA630, room temperature, 3 h; pH not stated. To be noted: protein: recombinant; tags: MBP.
Series [2] addresses T2, ZBP1 KH34 (UniProt Q9NZI8 405-553). Briefly: EMSA; text: tight to IMP2 and not to ZBP1; EMSA: 100 pM RNA, 10 mM Tris, 100 mM NaCl, 0.1 mM EDTA, 0.01 mg/mL tRNA, 50 ug/mL heparin, 0.01% IGEPAL CA630, room temperature, 3 h; pH not stated. The following applies: protein: recombinant; tags: MBP. In general terms: In EMSA bound probe runs differently from free probe, usually more slowly.

For series [3], the target named is T2, ZBP1 KH34. Briefly: EMSA; EMSA: 100 pM RNA, 10 mM Tris, 100 mM NaCl, 0.1 mM EDTA, 0.01 mg/mL tRNA, 50 ug/mL heparin, 0.01% IGEPAL CA630, room temperature, 3 h; pH not stated. The following applies: protein: recombinant; tags: MBP.
In series [4] the target is T3, IMP2 KH34 (NMR) (UniProt Q9Y6M1 425-581). Briefly: NMR titration; bound by KH4, intermediate exchange; EMSA: 100 pM RNA, 10 mM Tris, 100 mM NaCl, 0.1 mM EDTA, 0.01 mg/mL tRNA, 50 ug/mL heparin, 0.01% IGEPAL CA630, room temperature, 3 h; pH not stated. To be noted: protein: recombinant; tags: 6xHis.
Series [5] concerns the target T1, IMP2 KH34. Kind of series: EMSA; tenfold higher affinity than WT zipcode; EMSA: 100 pM RNA, 10 mM Tris, 100 mM NaCl, 0.1 mM EDTA, 0.01 mg/mL tRNA, 50 ug/mL heparin, 0.01% IGEPAL CA630, room temperature, 3 h; pH not stated. The following applies: protein: recombinant; tags: MBP.
For series [6], the target named is T3, IMP2 KH34 (NMR). Briefly: NMR titration; bound by KH3, fast exchange; EMSA: 100 pM RNA, 10 mM Tris, 100 mM NaCl, 0.1 mM EDTA, 0.01 mg/mL tRNA, 50 ug/mL heparin, 0.01% IGEPAL CA630, room temperature, 3 h; pH not stated. The following applies: protein: recombinant; tags: 6xHis.

T2 sequence (Q9NZI8 405-553): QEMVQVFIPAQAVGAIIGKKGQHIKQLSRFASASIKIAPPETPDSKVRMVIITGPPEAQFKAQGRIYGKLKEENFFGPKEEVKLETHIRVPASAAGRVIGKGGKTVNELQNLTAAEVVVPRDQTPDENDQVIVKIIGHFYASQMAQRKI
T1 sequence (Q9Y6M1 425-581): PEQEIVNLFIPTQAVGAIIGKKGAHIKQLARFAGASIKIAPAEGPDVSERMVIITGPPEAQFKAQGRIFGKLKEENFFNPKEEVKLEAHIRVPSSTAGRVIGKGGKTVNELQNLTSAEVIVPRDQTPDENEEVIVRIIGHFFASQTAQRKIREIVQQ
T3 sequence (Q9Y6M1 425-581): as above

B1: SELEX RNA #1 WT (ssRNA)
RNA: GGGCAGAGCGACGCAGUUUAGCGGCCUCAGCGAACCCUUUGGAACACUUCUCGAUAGUUGCGUGCGUCCAAA
For B1, the values for the binding result with IMP2 KH34 [1] and with ZBP1 KH34 [2] were “binds” and “no binding”, respectively.
On to ACCGGACUGUUACCAACACCCACACCCC (ssRNA) [C28 beta-actin zipcode WT], for which the Kd stood at 161 ± 25 nM with IMP2 KH34 [1] and 15 ± 4.9 nM in the series with ZBP1 KH34 [3].

B2: SELEX RNA #2 (ssRNA)
RNA: GGGCAGAGCGACGCAGUUUAGCCUGUGUAUACAGCGAACCCUUAGGAUGAUCGAUAGUUGCGUGCGUCGAAA
Consider B2, for which the values for the binding result with IMP2 KH34 [1] and with ZBP1 KH34 [2] were “binds” and “no binding”, respectively.
As to UUUGGAAC (ssRNA) [GG element RNA (3' RE)], the binding result in the series with IMP2 KH34 (NMR) [4] is given as “binds”.
As for ACCGGACUGUUACCAACACCCUCACCCC (ssRNA) [C28 A22U], the binding result with IMP2 KH34 [5] is given as “binds”.
For the molecule CCCUCACC (ssRNA) [CA element RNA (5' RE)], the binding result with IMP2 KH34 (NMR) [6] is recorded as “binds”.

These data come from PMC6768852, “The structural basis for RNA selectivity by the IMP family of RNA-binding proteins”.
